In US8846363B2, “Compositions of and methods of using sulfatases from Flavobacterium heparinum” (priority 2007, dated 2014):

What was measured:
[1] = substrate: Cc1cc(=O)oc2cc(O[C@H]3O[C@H](CO)[C@@H](O)[C@H](O)[C@H]3NS(=O)(=O)O)ccc12; experiment: Steady-state kinetics, coupled N-sulfamidase/α-glucosidase fluorimetric assay with 4-MU-GlcNS; type: biochemical, Flavobacterium heparinum (Pedobacter heparinus)
Excerpt: Recombinant protein expression in the E. coli strain BL21(DE3) and one-step affinity purification by nickel chelation chromatography were as described for 2-O-sulfatase (Myette et al., 2003 J Biol Chem 278, 12157-12166). The prediction of NH2-terminal signal sequences and putative cleavage sites for the two respective proteins was made by the Von Heijne computational method (Nielsen et al., 1997 Protein Eng 10, 1-6.). Engineering and expression of these truncated proteins (minus signal sequences) were as described above for the full-length genes with the exception of substituting the 5′ primers which were used in the original PCR amplification step. These internal primers included 5′ TCTAGACATATGTCTTGCCAGCAGCCTAAAC 3′ (for ORF B; SEQ ID NO: 15) and 5′ TCTAGACATATGTCCTGCACTTCGCCGGAA 3′ (for ORF C; SEQ ID NO: 16), with the Nde 1 site underlined. As such, the ORF B gene sequence begins at Met 18 (FIG. 1). Likewise, the ORF C gene sequence begins at Ser 21 (FIG. 2). Removal of the 6×His tag was achieved by site-specific protease cleavage using the thrombin cleavage capture kit (Novagen, San Diego, Calif.). Proteolysis conditions were generally as described for other recombinantly expressed flavobacterial heparin degrading enzymes. […]
Indirect measurement of enzyme activity was also made using a fluorimetrically-based plate assay in which the prerequisite desulfation of the appropriate glucopyranoside 1→4 methlybelliferone substrate by either the 6-O-sulfatase or N-sulfamidase was coupled to the glucosidase-mediated hydrolysis of the stereo-specific 1→4 glycosidic linkage between the pyranose ring and the adjoining fluorophore. Release of the free fluorophore (4-MU) was monitored spectroscopically as described above for the arylsulfatase assay using 4-MU sulfate. […] Reaction conditions were optimized to satisfy three related criteria: 1) linear readout of fluorescent signal which is directly proportional to sulfatase activity; 2) quantitative release of 4-MU by glucosidase activity under every biochemical condition examined and; 3) negligible fluorescent quenching of the free chromophore.
Coupled N-sulfamidase assay was generally described for the 6-O-sulfatase, but with the following modifications: 4-MU-GlcNS as substrate, 50 mM sodium acetate at pH 6.0 (instead of 5.5) and 1 μM enzyme. […] The obvious difference in enzyme efficacies between α-glucosidase versus β-glucosidase is reflected in the substantially longer incubation times required for the α-glucosidase to quantitatively hydrolyze the glycosidic α1→4 linkage between the fluorophore and the desulfated glucosamine. […]

[2] = CE-LIF detection of sequentially degraded oligosaccharides; type: biochemical; details: after Δ4,5 glycuronidase treatment of ΔUHNSIHNSIHNS
Method: The APTS derivitization protocol was adapted from Chen et al. (Chen F. T. A., and Evangelista R. A. (1995) Analytical Biochemistry 230, 273-280). Briefly, 2 μl of 100 mM 9-aminopyrene-1,4,6-trisulfonate (APTS) in 25% acetic acid (v/v) were mixed with 10 μl of 1M sodium cyanoborohydride in tetrohydrofuran and 1 μmol of saccharide. The reaction mixture was incubated at 75° C. for 2 hr and was diluted 1:100 prior to CE analysis. CE-LIF was performed on a Beckman Coulter ProteomeLab PA 800 with 488 nm argon LIF module. Samples were loaded onto a N—CHO capillary (50 μm I.D.×65 cm total length) using 0.5 psi of pressure at the anode for 20 sec. Electrophoretic separations were performed using a 20 kV potential in a 100 mM sodium borate, pH 10.2 buffer for 15 min at 25° C. Fluorescence emission spectra were collected using a 520 nm narrow band filter.

[3] = other: Addition: 0.5 mM Ca^+2, pH 6.0, 37.0 °C
[4] = other: Addition: 5 mM Ca^+2, pH 6.0, 37.0 °C

B1: Flavobacterium heparinum N-sulfamidase (ORF C), recombinant, NH2-terminal truncation lacking signal sequence, SEQ ID NO: 4 (Pedobacter heparinus DSM 2366) (protein)
chain: SCTSPEKKTDRPNILMIMSDNQSWNHVGSYGDQTVRTPNMDRIAKEGVRFTNAFCSSPSCTPARAGMLTGQDIWRLEDGGNLWGVLPVKYKVYPDLLEEAGYAIGFQGKGWGPGSFEANKRPRNPAGNEFKSFGAFLKDKKEGPWCYWISSHEPHRPYVEGSGEKAGIDPNKVKVPAYLPDHISIRKDIADYYAAVETFDRELGEALDQLKASGELDNTVIVVCSDNGWQMPRGLANLYDFGTHVPLIISWPGKFKQDVVADNLVTLNDLAPTFLQLGKVPVPADMTGKSLLPIVEAGKKDEKPRDYVVLGRERHAFVRRHGLGYPGRAIRTKDYLYIKNYEPNRWPAGDPPFYGDIDPYMFNWPGETKYYLIEHKDDPKVKSFFELGMGKRPAEELFDINKDPDELHNLAALPEYQKIKQELVAKLRNYLVATKDPRETNGNIQIWDTAAYFSEIDKTPKPSKEMQKRFKLDSSYNYLK
notes: E. coli BL21(DE3), N-terminal 6xHis removed by thrombin
Work on B1 yielded a Km [1, 3] of 45 µM, a kcat [1, 3] of 0.085 s⁻¹ and a Km [1, 4] of 178 µM. For the same molecule, the kcat [1, 4] was 0.365 s⁻¹ and the “desulfation of oligosaccharide at the non-reducing end” value [2] was “does desulfate some oligosaccharides in an exolytic fashion”.
